1 substance from PMC11433124 can be followed below.

The assay has as its target hRTL (Chondrilla australiensis tetramer lectin) (Chondrilla australiensis). Put plainly: SEC + other: SDS-PAGE; gel permeation chromatography on Shodex KW 402.5-4F (HPLC, 0.33 mL/min) in 50 mM sodium bicarbonate in saline, 60 kDa; SDS-PAGE under non-reducing conditions after 3 min or 20 min heating at 80 °C, 66 kDa and 18 kDa; subunit mass 15,521.11 Da by MALDI-TOF-MS.

One may read the stoichiometry N as the number of molecules, sites or subunits per partner or assembly.

As for “hRTL (Chondrilla australiensis tetramer lectin) (natural protein)”, the stoichiometry N was 4.
